# From patent publication US10704056B2, “Constitutively active ABA receptor mutants” (The Regents of the University of California, priority 2011, dated 2020)
# B1: PYL2^CA3: PYL2 mutant (H65P, V87F, F165V); expressed in plants as 35S-driven GFP fusion (protein)
# chain: HHHHHHMSSSPAVKGLTDEEQKTLEPVIKTYHQFEPDPTTCTSLITQRIHAPASVVWPLIRRFDNPERYKPFVKRCRLISGDGDVGSVREVTFISGLPASTSTERLEFVDDDHRVLSFRVVGGEHRLKNYKSVTSVNEFLNQDSGKVYTVVLESYTVDIPEGNTEEDTKMVVDTVVKLNLQKLGVAATSAPMHDDE
# System: Columbia seeds
# Assay: Seed dormancy / germination assay of 35S-driven transgenic lines, stratified vs unstratified
# Type: in vivo, Arabidopsis
# Conditions: 35S-driven overexpression in wild-type Columbia background
# Method: To investigate the effects of the PYL2^CA3 allele, we performed a number of physiological assays on wild-type and aba2-1 genotypes. Columbia (Col), 35S::PYL2, and 35S::PYL2^CA3 seed samples were divided into two portions; one portion was stratified on ⅓ MS plates for 6 days at 4° C. and the second portion was plated six days later ⅓ MS plates. Both samples were the transferred to room temperature (23° C.) and incubated in darkness. […] Each experiment was performed in triplicate and each point plotted represents the average of tests conducted using 40 to 70 seeds. […] Thus, overexpression of PYL2^CA3 activates the ABA-regulated seed dormancy pathway.
# In order to assay dormancy of seeds for Columbia, 35S::GFP-PYL2, and 35S::GFP-PYL2^CA3 were divided into two portions and surface sterilized using chlorine gas (prepared in situ using bleach and HCl). One portion was stratified on ⅓ MS agar plates for 6 days at 4° C. in darkness and the second portion, which was maintained at room temperature, was seeded six days later on the ⅓ MS agar plates; both samples were transferred to a 23° C. light-tight growth chamber and germination scored at 24 hour periods. The homozygous 35S::GFP-PYL2 and 35S::GFP-[…] seeds used in these experiments were ˜5- and ˜6-months post-harvest respectively at the time of the experiment shown in FIG. 12.
molecule,measurement,value
B1,seed hyperdormancy (stratification dependent germination),induces a state of hyperdormancy in seeds
